Laboratory results published in patent publication US20190161544A1 (SUNSHINE GUOJIAN PHARMACEUTICAL SHANGHAI, published 2019).

How the values were obtained:
[1] = target: T1, recombinant human IL-17A (purchased from R&D Systems) (human, UniProt Q16552 24-155); assay: cell-based or functional assay
[2] = target: T2, hIL-17A (analyte of the Biacore assay) (human, UniProt Q16552 24-155); assay: SPR, Biacore T200: antibody captured on Protein A/G, hIL-17A as analyte
T2 construct: The Biacore method says only 'hIL-17A'; also called human IL-17A
T2 sequence (Q16552 24-155 limits assumed): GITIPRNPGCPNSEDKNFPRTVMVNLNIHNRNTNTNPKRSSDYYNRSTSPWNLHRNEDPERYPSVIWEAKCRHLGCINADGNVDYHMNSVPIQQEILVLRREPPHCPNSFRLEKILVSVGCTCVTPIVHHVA
Method: (§1) The specific experimental method was as follows: Amine Coupling Kit (GE healthcare) was used to activate CM5 sensor chips (GE healthcare) and recombinant Protein A/G (Thermo Pierce) was immobilized on the chip with an amount of 2000 RU. FC3 (Flow cell 3) was a reference channel, and FC4 (Flow cell 4) was a sample channel. […] The cycling conditions were as follows: the analyte was injected at 50 μl/min for 4 min in all channels of the FCs, the dissociation time was 20 min, and 6M guanidine hydrochloride (National Pharmaceutical Group Chemical Reagent Co., Ltd.) was injected at a rate of 10 μl/min for 30 s to surface regeneration. Then, difference between the signals of the captured antibodies and antibody-free controls were adopted to calculate binding kinetics and affinities using Biacore T200 Evaluation Software Ver 1.0.

[3] = target: T1, recombinant human IL-17A (purchased …); assay: cell-based or functional assay; remark: listed apart in the source
[4] = target: T2, hIL-17A (analyte of the Biacore assay); assay: SPR, Biacore (as in Example 6): antibody captured, hIL-17A as analyte
Method: as §1

T1 sequence (Q16552 24-155 limits assumed): as above

B1: Ixekizumab (antibody, V domains shown)
VH: QVQLVQSGAEVKKPGSSVKVSCKASGYSFTDYHIHWVRQAPGQGLEWMGVINPMYGTTDYNQRFKGRVTITADESTSTAYMELSSLRSEDTAVYYCARYDYFTGTGVYWGQGTLVTVSS
VL: DIVMTQTPLSLSVTPGQPASISCRSSRSLVHSRGNTYLHWYLQKPGQSPQLLIYKVSNRFIGVPDRFSGSGSGTDFTLKISRVEAEDVGVYYCSQSTHLPFTFGQGTKLEIKR
[1]
  IC50, inhibition of IL-17A-induced IL-6 secretion from Hela cells: 0.0606 nM
[2]
  Kd: 0.0637 nM
  koff: 3.28e-05 s⁻¹
  kon: 515000 M⁻¹ s⁻¹
[3]
  IC50(pM), inhibition of IL-17A-induced IL-6 secretion from Hela cells, Experiment 1: 21.9 pM
  IC50(pM), inhibition of IL-17A-induced IL-6 secretion from Hela cells, Experiment 2: 27.4 pM
  IC50(pM), inhibition of IL-17A-induced IL-6 secretion from Hela cells, Experiment 3: 50.7 pM
[4]
  Kd: 0.0411 nM
  koff: 9.45e-05 s⁻¹
  kon: 2.3e+06 M⁻¹ s⁻¹

B2: murine anti-human IL-17A monoclonal antibody No.120 (antibody, V domains shown)
VH: EVKLVESGGGLVRPGGTLKLSCAASGFTFSSFDMSWGRQTPEKRLEWVAFMSSGGSTYYPDSVKGRFTISRDNVRNILYLQMISLRSEDTAMYYCARGERYGSYWGQGTLVTVSA
VL: DIQMTQSSSYLSVSLGGRVTITCKASDHINNWLAWYQQKPGNAPRLLISGATSLETGVPSRFSGSGSGKDYTLSITSLQTEDVATYYCQQYWSTPFTFGSGTKLEIK
notes: also called No.120 antibody; murine 120 antibody
[1]
  IC50, inhibition of IL-17A-induced IL-6 secretion from Hela cells: 0.0305 nM
[2]
  Kd: 0.000299 nM
  koff: 6.08e-08 s⁻¹
  kon: 204000 M⁻¹ s⁻¹

B3: humanized anti-human IL-17A monoclonal antibody 120-Hu (antibody, human IgG1, kappa, V domains shown)
VH: EVQLVESGGGLVQPGGSLRLSCAASGFTFSSFDMSWGRQAPGKRLEWVAFMSSGGSTYYPDSVKGRFTISRDNSKNTLYLQMNSLRAEDTAVYYCARGERYGSYWGQGTLVTVSS
VL: DIQMTQSPSSLSASVGDRVTITCKASDHINNWLAWYQQKPGKAPKLLISGATSLETGVPSRFSGSGSGTDYTLTISSLQPEDFATYYCQQYWSTPFTFGSGTKLEIKR
notes: Human IgG1; also called 120-Humanization; humanized 120 antibody
[3]
  IC50(pM), inhibition of IL-17A-induced IL-6 secretion from Hela cells, Experiment 1: 14.7 pM
  IC50(pM), inhibition of IL-17A-induced IL-6 secretion from Hela cells, Experiment 2: 22 pM
  IC50(pM), inhibition of IL-17A-induced IL-6 secretion from Hela cells, Experiment 3: 44.6 pM
[4]
  Kd: < 0.001 nM
  koff: < 1e-05 s⁻¹
  kon: 445000 M⁻¹ s⁻¹
